Assay results reported in US20010044939A1, “Small subunit of plant acetolactate synthase” (priority 2000, published 2001).

Assays:
[1] = test system: Nicotiana plumbaginifolia acetolactate synthase (ALS) holoenzyme: N. plumbaginifolia LSU (encoded by pMTDRALS; ALS10 cDNA SEQ ID NO:42, predicted polypeptide …); assay: Inhibition of reconstituted plant ALS holoenzyme by herbicides (acetoin detection, microtiter plate); assay type: biochemical; conditions: holoenzyme (LSU + GST-SSU, thrombin cleaved); sodium pyruvate started (10 μL of 500 mM per well); pH 7.6; 37° C., 30 min; read-out: I50
Experimental: The plasmid pSSU Bbs/Bam was digested to completion with Bbs I and Xho I and the digestion products were separated by electrophoresis using a […] agarose gel and the 1.35 kbp Bbs I/Xho I fragment was recovered from the gel. Three hundred ng of this DNA was ligated with 1 μg of the plasmid pGEX-2TM that had been digested to completion with BamH I and Xho I and dephosphorylated as described above. The ligation reaction was diluted five fold with H2O and used to transform competent Max Efficiency E. coli DH5α as described above. […] This plasmid was designated pGEX-SSU.
The plasmid ALS10 that contains a full length cDNA copy of the Nicotiana plumbaginifolia ALS gene in the plasmid vector pBluescript was used as the source of the ALS coding region for pMTDRALS. The sequence of this cDNA is shown in SEQ ID NO:42. ALS10 was digested to completion with Xho I and Eco0109I, and the digestion products were separated by agarose gel electrophoresis. […] The plates were incubated overnight at 37° C. and plasmids isolated from kanamycin-resistant bacterial colonies were analyzed for the presence of the insert encoding the ALS large subunit by double digestion with Nde I and Xho I. One such plasmid, designated pMTDRALS was then transformed into E. coli BL21(DE3) using methods known to those skilled in the art. […]

[2] = biological target: N. plumbaginifolia ALS large subunit from plasmid pMTDRALS (Nicotiana plumbaginifolia); assay: cell-based or functional assay
[3] = biological target: free Arabidopsis thaliana ALS large subunit released from GST-LSU by thrombin (Arabidopsis thaliana) (UniProt P17597); assay: cell-based or functional assay
[4] = biological target: GST-LSU: A. thaliana ALS large subunit expressed as a glutathione-S-transferase fusion protein from plasmid pGEX-OCM2 (Arabidopsis thaliana) (UniProt P17597); assay: cell-based or functional assay

| Molecule | IC50 [1] | Specific Activity after thrombin addition (units/mg LSU), ALS enzyme assay [2] | Specific Activity before thrombin addition (units/mg LSU), ALS enzyme assay [2] | Specific Activity after thrombin addition (units/mg LSU), ALS enzyme assay [3] | Specific Activity before thrombin addition (units/mg LSU), ALS enzyme assay [4] | also measured |
| --- | --- | --- | --- | --- | --- | --- |
| CC(C)C1(C)N=C(c2nc3ccccc3cc2C(=O)O)NC1=O (stereo not shown) [imazequin] | 800 nM |  |  |  |  |  |
| bovine serum albumin (from UniProt P02769 25-607) |  | 0.4 units/mg LSU | 1.1 units/mg LSU | 0.04 units/mg LSU | 0.3 units/mg LSU |  |
| free N. plumbaginifolia ALS small subunit released from Trx-HIS/SSU by thrombin |  | 6.5 units/mg LSU |  | 1.1 units/mg LSU |  | fold increase in specific activity (sample 2 against sample 1, after thrombin) [3]: > 20 fold |
| CCc1cnc(C2=NC(C)(C(C)C)C(=O)N2)c(C(=O)O)c1 (stereo not shown) [imezethapyr] | 4000 nM |  |  |  |  |  |
| Trx-HIS/SSU: N. plumbaginifolia acetolactate synthase small subunit expressed as a thioredoxin fusion from plasmid pTrx-HIS/SSU (from UniProt P0AA25 1-109) |  |  | 5.5 units/mg LSU |  | 0.9 units/mg LSU | fold increase in specific activity (sample 4 against sample 3, before thrombin) [2]: 5 fold; fold increase in specific activity (sample 2 against sample 1, before thrombin) [4]: 3 fold |
